Data reported in the RNAGym collection of RNA variant scans (doi:10.7554/elife.80360).

B1: HDV Ribozyme (parent)
chain: GGCCGGCAUGGUCCCAGCCUCCUCGCUGGCGCCGGCUGGGCAACAUUCCGAGGGGACCGUCCCCUCGGUAAUGGCGAAUGGGACCCA

Variants of: B1
Assay: self-cleavage, relative activity (ratio to wild type); higher = more cleavage; co-transcriptional

Row | Variant | self-cleavage
1 | U65C G68C | 0.883
2 | C63G U69A | 1.16
3 | C62U A78C | 0.0936
4 | C62U A78U | 0.282
5 | C64A U69A | 1.06
6 | C64A U69G | 1.15
7 | U65A G73U | 0.217
8 | C64G G67A | 0.356
9 | C64G C84G | 0.76
10 | U65A A87U | 0.96
11 | U65C A71C | 0.703
12 | C63U A70G | 1.02
13 | C62U A83C | 0.359
14 | C62U A83U | 0.318
15 | C63G G74C | 0.128
16 | U65C G73A | 0.746
17 | U65C G73U | 0.554
18 | U65A G67A | 0.98
19 | C64U G73A | 0.81
20 | U65A A78C | 0.259
21 | C63A G80C | 0.332
22 | U65C G80C | 0.249
23 | C64U C66A | 0.95
24 | C64U C66U | 1.01

Row | Variant | self-cleavage
25 | U65C A77U | 0.806
26 | C63G U72G | 0.192
27 | U65G C66G | 0.812
28 | U65G A77U | 0.554
29 | C63U C84A | 0.76
30 | C64U U79G | 0.847
31 | C64U U79C | 0.306
32 | C66G A83G | 0.72
33 | C66G A83U | 0.415
34 | C62U U69G | 1.07
35 | U65A G80A | 0.201
36 | C63G C66U | 0.386
37 | C66G A77G | 0.612
38 | C66U A71G | 0.909
39 | U65A A70U | 1.14
40 | C66A U79C | 0.582
41 | C64G C86A | 0.946
42 | C66U A78C | 0.178
43 | C66U A78G | 0.69
44 | C63U G68A | 0.973
45 | U65G G80C | 0.185
46 | C62U A77G | 0.831
47 | C63G C84G | 0.306
48 | C63A A83U | 0.77

Row | Variant | self-cleavage
49 | C62U G81A | 0.531
50 | U65G G76A | 0.95
51 | C63G U79A | 0.856
52 | C63G U79C | 0.697
53 | U65G A71U | 0.863
54 | U65A C66A | 1.08
55 | C63U G73U | 0.409
56 | C64A C66G | 0.489
57 | C64A C66A | 0.573
58 | C63A A78C | 0.108
59 | C64A A87U | 0.71
60 | C64G G76U | 1.05
61 | C64G G76C | 0.702
62 | C66G G68C | 0.554
63 | C66U | 1.01
64 | C66G | 0.973
65 | C66A | 0.975
66 | C63U A78U | 0.287
67 | C63U A78C | 0.237
68 | C63U A78G | 0.755
69 | C64U G80C | 0.158
70 | C64A G82C | 0.199
71 | U65C A78C | 0.293
72 | U65G C75A | 0.259

Row | Variant | self-cleavage
73 | U65G C75G | 0.323
74 | C66G C84G | 0.745
75 | C66G C84U | 0.545
76 | U65G A87G | 0.973
77 | U65G A87C | 0.859
78 | C63U C66A | 0.978
79 | U65G A78C | 0.119
80 | U65G A78G | 0.957
81 | C66U A83G | 0.643
82 | C66G A71G | 1.05
83 | C66G A71C | 1.03
84 | C66G A71U | 1.01
85 | U65G G82U | 0.453
86 | C63G A70U | 0.564
87 | C63G A70G | 0.76
88 | U65G U69C | 0.877
89 | C66A A87C | 1
90 | C63G A78G | 0.54
91 | C64A U65C | 0.831
92 | C63G A71G | 0.656
93 | C63G A71U | 0.712
94 | C63U A87U | 1.01
95 | C66G C86G | 1.07
96 | C66G C86A | 0.984

Row | Variant | self-cleavage
97 | C66G C86U | 0.931
98 | C63A G73C | 0.332
99 | C63A G73A | 0.681
100 | C63A G73U | 0.3
101 | C63U G76U | 1.15
102 | C64G U72A | 0.614
103 | C66G G73C | 0.46
104 | C64G C75G | 0
105 | C63G U65A | 0.415
106 | C62U G74A | 0.383
107 | C62U G74C | 0.234
108 | C66G G76A | 1.02
109 | C62U C75U | 0.173
110 | U65A A83U | 0.539
111 | C66G A87G | 1.06
112 | C66G A87C | 0.857
113 | C66G A87U | 0.853
114 | U65G A70U | 0.892
115 | U65G A70G | 1.05
116 | C66U A77C | 0.34
117 | U65C U79C | 0.415
118 | C63U G67U | 1.02
119 | C63U G67C | 0.96
120 | C63U G67A | 0.933

Row | Variant | self-cleavage
121 | C66G U79C | 0.521
122 | C64U A70U | 1.01
123 | U65A G76U | 1.04
124 | C66G G67A | 0.706
125 | U65G C84A | 1.04
126 | C62U U72C | 0.636
127 | C64A C75U | 0.332
128 | C64A C75A | 0.237
129 | C64A C75G | 0.18
130 | C63G G73U | 0.397
131 | C64G A71U | 0.863
132 | C64G U69C | 1.29
133 | C64G U69G | 0.91
134 | U65G U79C | 0.19
135 | C66G G81A | 0.408
136 | C66G G81U | 0.214
137 | C66G G81C | 0.193
138 | C64A C85G | 0.594
139 | C64U A77G | 1.01
140 | U65C A87C | 1.09
141 | C63G A83C | 0.249
142 | C63G A83U | 0.271
143 | C63A C85G | 0.849
144 | C64A G73U | 0.332

Row | Variant | self-cleavage
145 | C64A G73A | 0.385
146 | C64U G68U | 0.607
147 | C66U A87C | 0.875
148 | C64G G68C | 0.264
149 | C64A C86A | 0.942
150 | C64U A87C | 0.971
151 | U65A C85U | 0.791
152 | U65A C85A | 0.858
153 | C63G C85A | 0.95
154 | C63G C64U | 0.753
155 | C63G C64A | 0.862
156 | C64G A83C | 0.373
157 | U65G G67C | 0.156
158 | U65G G67U | 0.569
159 | C63U C86G | 1.11
160 | U65C C86G | 1.18
161 | C66A C85G | 0.918
162 | C63U U69C | 0.964
163 | U65A G68A | 0.641
164 | C63U C75U | 0.324
165 | C64G G82U | 0.228
166 | C64G G82C | 0.0811
167 | U65C G74A | 0.456
